This is an account of results in the supplement of paper PMC6755084.

B1: minF1; the commonest letter at each place (parent)
chain: GAGACCGCAACTGAAAAGTTGTTATCAGAAATGGATGGGTTGAATTTCTGCACGTAGAAGCAAAAGGC

Variants of B1 are the subject of the data set. Description: fraction ligated after 30 min (ligated reads / total reads); higher = more ligase activity. To be noted: with F1*subA RNA substrate (template-directed ligation), 42 °C. As for the experimental part:
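Chip-synthesised pool of minF1 ligase ribozyme variants (single and double substitutions, single to quadruple deletions, bulge and P2 designed variants) was transcribed with T7 and reacted as a pool with excess substrate F1*subA for 30 min at 42 C in 50 mM EPPS pH 8.5, 25 mM MgCl2. Ligated and unligated RNAs were separated by PAGE, barcoded by RT and deep sequenced; fraction ligated = ligated reads / total reads, relative activity = FL / FL of wild-type minF1 (0.76); sequencing FL correlated with PAGE (R2 = 0.98). Sequences are the DNA template of the ribozyme.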
On to GAGACCGCAACTGAAAAGTTGTTATCAGTGATGGATGGGTTGAATTTCTGCACGTAGAAGCAAAAGGC [A29T A30G], for which the fraction ligated is 0.821.

GAGACCGCAACTGAAAAGTTGTTATCAGAAATCGATAGGTTGAATTTCTGCACGTAGAAGCAAAAGGC [G33C G37A]: the fraction ligated amounted to 0.00724.

On to GAGACCGCAACTGAAAAGTTGTTATCAGAGGTGGATGGGTTGAATTTCTGCACGTAGAAGCAAAAGGC [A30G A31G], for which the fraction ligated is 0.84.

As for GAGACCGCAACTGAAAAGTTGTTACCAGAAATGGATAGGTTGAATTTCTGCACGTAGAAGCAAAAGGC [T25C G37A], the fraction ligated was 0.00575.

Turning to GAGACCGCAACTGAAAAGTTGTTATCAGAACTGAATGGGTTGAATTTCTGCACGTAGAAGCAAAAGGC [A31C G34A], the fraction ligated turned out to be 0.055.

GAGACCGCAACTGAAAAGTTGTTATCAGACATGCATGGGTTGAATTTCTGCACGTAGAAGCAAAAGGC [A30C G34C]: the fraction ligated was 0.00405.

Take GAGACCGCAACTGAAAAGTTGTTATAAGAAATGGATAGGTTGAATTTCTGCACGTAGAAGCAAAAGGC [C26A G37A]: the fraction ligated came out at 0.00335.

On to GAGACCGCAACTGAAAAGTTGTTATCATAAATGGCTGGGTTGAATTTCTGCACGTAGAAGCAAAAGGC [G28T A35C], for which the fraction ligated came out at 0.0723.

Take GAGACCGCAACTGAAAAGTTGTTATCAGAATTGGATGGGTTGCATTTCTGCACGTAGAAGCAAAAGGC [A31T A43C]: the fraction ligated is 0.157.

As for GAGACCGCAACTGAAAAGTTGTAATCAGATATGGATGGGTTGAATTTCTGCACGTAGAAGCAAAAGGC [T23A A30T], the fraction ligated was found to be 0.132.

In the case of GAGACCGCAACTGAAAAGTTGTTCTCTGAAATGGATGGGTTGAATTTCTGCACGTAGAAGCAAAAGGC [A24C A27T], the fraction ligated turned out to be 0.105.

For the variant GAGACCGCAACTGAAAAGTTGTTATCAGAAATGGTTGGGTTGAATTTCTGCACGTAGAAGCAAAAGGC [A35T], the fraction ligated worked out at 0.037.

For GAGACCGCAACTGAAAAGTTGTAATCAGAAGTGGATGGGTTGAATTTCTGCACGTAGAAGCAAAAGGC [T23A A31G], the fraction ligated is 0.264.

On to GAGACCGCAACTGAAAAGTTGTCATCAGAAATGGATGGGTTGTATTTCTGCACGTAGAAGCAAAAGGC [T23C A43T], for which the fraction ligated amounted to 0.00662.

For GAGACCGCAACTGAAAAGTTGTTATCAGAAATGAGTGGGTTGAATTTCTGCACGTAGAAGCAAAAGGC [G34A A35G], the fraction ligated was determined as 0.00813.

As for GAGACCGCAACTGAAAAGTTGTTATCAGAATTGGATCGGTTGAATTTCTGCACGTAGAAGCAAAAGGC [A31T G37C], the fraction ligated stood at 0.00621.

Regarding GAGACCGCAACTGAAAAGTTGTTATGAGAAAGGGATGGGTTGAATTTCTGCACGTAGAAGCAAAAGGC [C26G T32G], the fraction ligated amounted to 0.00509.

Regarding GAGACCGCAACTGAAAAGTTGTTATCCGAAATGGATGGGTTGATTTTCTGCACGTAGAAGCAAAAGGC [A27C A44T], the fraction ligated was found to be 0.441.

For GAGACCGCAACTGAAAAGTTGTTATCAGAAATGTATGGGTTGGATTTCTGCACGTAGAAGCAAAAGGC [G34T A43G], the fraction ligated was determined as 0.0028.

Take GAGACCGCAACTGAAAAGTTGTTATCAGAGATGGGTGGGTTGAATTTCTGCACGTAGAAGCAAAAGGC [A30G A35G]: the fraction ligated was found to be 0.4.

Turning to GAGACCGCAACTGAAAAGTTGTTATCAGAAATGGACGGGTTGAATTTCTGCACGTAGAAGCAAAAGGC [T36C], the fraction ligated came to 0.0157.

For GAGACCGCAACTGAAAAGTTGTTATCATACATGGATGGGTTGAATTTCTGCACGTAGAAGCAAAAGGC [G28T A30C], the fraction ligated was 0.819.

GAGACCGCAACTGAAAAGTTGTCTTCAGAAATGGATGGGTTGAATTTCTGCACGTAGAAGCAAAAGGC [T23C A24T]: the fraction ligated worked out at 0.0194.

In the case of GAGACCGCAACTGAAAAGTTGTTATCAGAAATGGCTGGGTTGGATTTCTGCACGTAGAAGCAAAAGGC [A35C A43G], the fraction ligated is 0.00754.

As to GAGACCGCAACTGAAAAGTTGTTATGAGAAATGGAGGGGTTGAATTTCTGCACGTAGAAGCAAAAGGC [C26G T36G], the fraction ligated amounted to 0.00843.

In the case of GAGACCGCAACTGAAAAGTTGTTATCATAAATAGATGGGTTGAATTTCTGCACGTAGAAGCAAAAGGC [G28T G33A], the fraction ligated came to 0.814.

Take GAGACCGCAACTGAAAAGTTGTTATCACAAATGGATGGGTTGATTTTCTGCACGTAGAAGCAAAAGGC [G28C A44T]: the fraction ligated worked out at 0.719.

As to GAGACCGCAACTGAAAAGTTGTTATCACAAATAGATGGGTTGAATTTCTGCACGTAGAAGCAAAAGGC [G28C G33A], the fraction ligated amounted to 0.772.

With GAGACCGCAACTGAAAAGTTGTTAACAGAGATGGATGGGTTGAATTTCTGCACGTAGAAGCAAAAGGC [T25A A30G], the fraction ligated was 0.00687.

In the case of GAGACCGCAACTGAAAAGTTGTTATCAGAAATCGAGGGGTTGAATTTCTGCACGTAGAAGCAAAAGGC [G33C T36G], the fraction ligated stood at 0.0305.

GAGACCGCAACTGAAAAGTTGTGATCAGAAATGGATGGGTTAAATTTCTGCACGTAGAAGCAAAAGGC [T23G G42A]: the fraction ligated turned out to be 0.204.

As to GAGACCGCAACTGAAAAGTTGTTATAAGTAATGGATGGGTTGAATTTCTGCACGTAGAAGCAAAAGGC [C26A A29T], the fraction ligated was found to be 0.112.

On to GAGACCGCAACTGAAAAGTTGTTATCAGAAATAGAGGGGTTGAATTTCTGCACGTAGAAGCAAAAGGC [G33A T36G], for which the fraction ligated is 0.0572.

GAGACCGCAACTGAAAAGTTGTTGTCAGAAATGGATCGGTTGAATTTCTGCACGTAGAAGCAAAAGGC [A24G G37C]: the fraction ligated came out at 0.000862.

As for GAGACCGCAACTGAAAAGTTGTTCTCAAAAATGGATGGGTTGAATTTCTGCACGTAGAAGCAAAAGGC [A24C G28A], the fraction ligated turned out to be 0.0266.

As to GAGACCGCAACTGAAAAGTTGTTATCAGAAATGCCTGGGTTGAATTTCTGCACGTAGAAGCAAAAGGC [G34C A35C], the fraction ligated is 0.00352.

GAGACCGCAACTGAAAAGTTGTTATGAGAAATGTATGGGTTGAATTTCTGCACGTAGAAGCAAAAGGC [C26G G34T]: the fraction ligated was determined as 0.00574.

As for GAGACCGCAACTGAAAAGTTGTTATCAGAAATCGATGGGTTGAGTTTCTGCACGTAGAAGCAAAAGGC [G33C A44G], the fraction ligated amounted to 0.497.

On to GAGACCGCAACTGAAAAGTTGTTATCAGAAATGGATGGGTTTTATTTCTGCACGTAGAAGCAAAAGGC [G42T A43T], for which the fraction ligated turned out to be 0.00326.
